US11911507B2, “Liposomes comprising polymer-conjugated lipids and related uses” (Yissum Research Development Company of the Hebrew …, priority 2011, dated 2024)

How the values were obtained:
[1] = Size stability of liposomes with different polymer-conjugated lipids on heated incubation, dynamic light scattering; details: DMPC liposomes, 55° C., day 1 vs day 17, versus control nanoliposomes
Description: FIG. 3: Size stability of liposomes with different polymer-conjugated lipids (Po-Ls): Liposomes with or without the indicated Po-L were incubated at 55° C. for 17 days, and the change in their size was monitored using dynamic light scattering. […] DMPC=dimyristoyl phosphatidyl-choline; HyPE=HyPE=Hyaluronic acid (HA)-conjugated Phosphatidyl-ethanolamine (PE); Dex (5)-PE=Dextran (MW 5K)-conjugated PE; Dex(40)=Dextran (MW 40K)-conjugated PE; Heta-PE=Hetastarch (hydroxyethylstarch)-conjugated PE; Hem-PE=Hemaccel (Polygeline)-conjugated PE.
The size of the mixed nano-liposomes was determined by dynamic light scattering.

[2] = Retention of liposome-encapsulated inulin fluorescein in rat circulation after tail vein injection; format: in vivo; details: rats, blood samples 5 minutes and 28 hours, versus control nanoliposomes (FIG. 6)
Description: FIG. 6: Effect of Pol-PLI on stability of liposomes in rat blood (in vivo): InFl-containing Liposomes were injected to the tail vein of rats, and the retention of drug in the circulation was monitored for 28 hour, by determination of the drug level in blood samples taken 5 minutes and 28 hours after injection, and expressed as percent of the initial, injected InFl amount.

Which “nanoliposome size stability (FIG. 3)” value [1] does the source give for “Haemaccel-Glutaryl-phosphatidyl-ethanolamine [Hem-PE]” here?
The value was “more stable nanoliposome size than control nanoliposomes”.

What about the “release of encapsulated drug from nanoliposomes, in vivo” value [2] of the same substance?
The value was “markedly slowed down the drug release”.
